Results published in US8465945B2, “Method for production and use of mite group 1 proteins” (Merck Patent GmbH, priority 1999, dated 2013).

Assays:
[1] = tested on: IgE from mite-allergic dog sera; assay: ELISA, binding of IgE from dog sera to coated Der f 1 proteins or mite extracts, detected with FcεR1α-biotin
Method: Native or recombinant Der f 1 proteins in 100 μl CBC buffer (50 mM sodium carbonate, pH 9.6) were coated onto wells (100 ng per well) of Immulon II microtiter plates (available from Dynex Technologies, Chantilly, Va.) by incubation at 4° C., covered, overnight. Excess fluid was removed and wells were blocked with 200 μl Assay Buffer (4% fetal calf serum (available from Summit Laboratories, Fort Collins, Colo.) in phosphate buffered saline (PBS, recipe in Sambrook, ibid.), plus 0.05% Tween-20 (available from Sigma, St. Louis, Mo.)) for one hour at room temperature. Plates were then washed for 4 cycles on an automatic plate washer (Ultrawash, available from Dynatech Laboratories) using PBS with 0.05% Tween-20. […] Control wells were treated identically except that no serum was added. Plates were then washed as described above. Biotinylated human IgE receptor alpha chain (FcεR1α-biotin) (100 μl of 1.3 ng/ml) prepared as described in U.S. Pat. No. 5,945,294, ibid., was added and incubated for one hour at room temperature. After this incubation, plates were washed as described above. Streptavidin-horseradish peroxidase conjugate (0.5 mg/ml, available from KPL Labs, Gaithersburg, Md.) was added at a 1:5000 dilution in Assay Buffer for one hour at room temperature, after which plates were washed as described above. TMB Peroxidase substrate system, 2 part (available from KPL Labs, #0-76-00), added at 100 μl per well, was used according to the manufacturer's directions. The color reaction was allowed to proceed until good color development was reached (about 10-15 min); then the reaction was stopped with 100 μl per well of 1 M phosphoric acid. Bound IgE was determined by measuring absorbance (Optical Density, or OD) at 450 nm (nanometers) using an ELISA plate reader (such as Spectramax”, Molecular Devices, Sunnyvale, Calif.). Background OD readings in the control wells were subtracted from all numbers. Results are reported in Tables 1, 2 and 3 as OD multiplied by 1000. OD numbers greater than 100 are considered to be positive for a reaction with IgE. P. pastoris-expressed proteins are denoted in the Tables as Pichia expressed proteins.

[2] = tested on: anti-Der f 1 MAb 6A8 (capture) and anti-Der f 1 MAb 4C1 (detection); assay: Monoclonal Capture ELISA; format: binding
Method: Assays were carried out as follows. A microtiter plate as described in Example 5 was coated overnight at 4° C. with 100 ng/well of anti-Der f 1 protein monoclonal antibody 6A8, denoted herein as anti-Der f 1 MAb 6A8, provided by Dr. Martin Chapman. The plate was washed in the manner described above. The following proteins were then added to wells, having been diluted in Assay Buffer in a 2-fold dilution series, from 0.75 to 50 ng/well: Heska native Derf1, P. pastoris-expressed PDerf1303b, and E. coli-expressed PDerf1303c. After incubation for 1 hour at room temperature, plates were washed as described in Example 5. Then 100 μl per well of a 1:1000 dilution in Assay Buffer of biotinylated anti-Der f 1 monoclonal antibody 4C1, also denoted anti-Der f 1 MAb 4C1, provided by Dr. Martin Chapman, was added for 1 hour at room temperature. Plates were washed, streptavidin-HRP conjugate was added, and plates were developed as described in Example 5.

[3] = tested on: IgE from mite-allergic or normal human sera; assay: ELISA, binding of IgE from human sera to coated Der f 1 proteins or mite extracts, detected with FcεR1α-biotin

B1: Heska native Derf1: Native purified Der f 1 protein, purified as described in U.S. Ser. No. 09/292,225 (protein)
chain: TSACRINSVNVPSELDLRSLRTVTPIRMQGGCGSCWAFSGVAATESAYLAYRNTSLDLSEQELVDCASQHGCHGDTIPRGIEYIQQNGVVEERSYPYVAREQRCRRPNSQHYGISNYCQIYPPDVKQIREALTQTHTAIAVIIGIKDLRAFQHYDGRTIIQHDNGYQPNYHAVNIVGYGSTQGDDYWIVRNSWDTTWGDSGYGYFQAGNNLMMIEQYPYVVIM
[1]; Assay Number 1, serum dog pool
  OD, bound IgE: 750 OD multiplied by 1000
[1]; Assay Number 1, serum dog-1
  OD, bound IgE: 3 OD multiplied by 1000
[1]; Assay Number 1, serum dog-2
  OD, bound IgE: 2245 OD multiplied by 1000
[1]; Assay Number 1, serum dog-3
  OD, bound IgE: 2839 OD multiplied by 1000
[1]; Assay Number 2, dog sera pool A 146
  OD, bound IgE: 449 OD multiplied by 1000
[1]; Assay Number 2, dog sera pool KS338
  OD, bound IgE: 101 OD multiplied by 1000
[2]; 0.75 ng protein per well
  OD, protein captured by MAb 6A8 and detected by MAb 4C1: 1740 OD
[2]; 1.5 ng protein per well
  OD, protein captured by MAb 6A8 and detected by MAb 4C1: 2043 OD
[2]; 2.5 ng protein per well
  OD, protein captured by MAb 6A8 and detected by MAb 4C1: 2291 OD
[2]; 3.1 ng protein per well
  OD, protein captured by MAb 6A8 and detected by MAb 4C1: 2219 OD
[2]; 6.25 ng protein per well
  OD, protein captured by MAb 6A8 and detected by MAb 4C1: 2197 OD
[2]; 25 ng protein per well
  OD, protein captured by MAb 6A8 and detected by MAb 4C1: 2142 OD
[2]; 50 ng protein per well
  OD, protein captured by MAb 6A8 and detected by MAb 4C1: 2183 OD
[3]; Assay Number 1, serum human 1916
  OD, bound IgE: 51 OD multiplied by 1000
[3]; Assay Number 1, serum human3848
  OD, bound IgE: 3123 OD multiplied by 1000
[3]; Assay Number 1, serum human 3958
  OD, bound IgE: 3368 OD multiplied by 1000
[3]; Assay Number 1, serum human 3960
  OD, bound IgE: 2279 OD multiplied by 1000
[3]; Assay Number 1, serum human 3961
  OD, bound IgE: 1479 OD multiplied by 1000
[3]; Assay Number 1, serum human 3987
  OD, bound IgE: 3741 OD multiplied by 1000
[3]; Assay Number 1, serum human 4289
  OD, bound IgE: 777 OD multiplied by 1000
[3]; Assay Number 1, serum human 4467
  OD, bound IgE: 1302 OD multiplied by 1000
[3]; Assay Number 1, serum human 5207
  OD, bound IgE: 3051 OD multiplied by 1000
[3]; Assay Number 1, serum human pool
  OD, bound IgE: 1732 OD multiplied by 1000
[3]; Assay Number 2, serum Heska human B
  OD, bound IgE: 0 OD multiplied by 1000
[3]; Assay Number 2, serum Heska human C
  OD, bound IgE: 0 OD multiplied by 1000
[3]; Assay Number 2, serum Heska human D
  OD, bound IgE: 0 OD multiplied by 1000
[3]; Assay Number 2, serum Heska human E
  OD, bound IgE: 19 OD multiplied by 1000
[3]; Assay Number 2, serum Heska human F
  OD, bound IgE: 0 OD multiplied by 1000
[3]; Assay Number 2, serum Heska human G
  OD, bound IgE: 1 OD multiplied by 1000
[3]; Assay Number 2, serum Heska human H
  OD, bound IgE: 0 OD multiplied by 1000
[3]; Assay Number 2, serum Heska human I
  OD, bound IgE: 1 OD multiplied by 1000
[3]; Assay Number 2, serum Heska human J
  OD, bound IgE: 1 OD multiplied by 1000
[3]; Assay Number 2, serum Heska human K
  OD, bound IgE: 0 OD multiplied by 1000
[3]; Assay Number 2, serum Heska human L
  OD, bound IgE: 0 OD multiplied by 1000
[3]; Assay Number 2, serum Heska human M
  OD, bound IgE: 51 OD multiplied by 1000
[3]; Assay Number 2, serum Heska human N
  OD, bound IgE: 885 OD multiplied by 1000
[3]; Assay Number 2, serum Heska human O
  OD, bound IgE: 0 OD multiplied by 1000
[3]; Assay Number 2, serum Heska human P
  OD, bound IgE: 0 OD multiplied by 1000
[3]; Assay Number 2, serum Heska human Q
  OD, bound IgE: 0 OD multiplied by 1000
[3]; Assay Number 2, serum Heska human R
  OD, bound IgE: 1 OD multiplied by 1000
[3]; Assay Number 2, serum human 1916
  OD, bound IgE: 62 OD multiplied by 1000
[3]; Assay Number 2, serum human 3848
  OD, bound IgE: 2362 OD multiplied by 1000
[3]; Assay Number 2, serum human 3958
  OD, bound IgE: 2235 OD multiplied by 1000
[3]; Assay Number 2, serum human 3960
  OD, bound IgE: 1308 OD multiplied by 1000
[3]; Assay Number 2, serum human 3961
  OD, bound IgE: 784 OD multiplied by 1000
[3]; Assay Number 2, serum human 3987
  OD, bound IgE: 2664 OD multiplied by 1000
[3]; Assay Number 2, serum human 4289
  OD, bound IgE: 589 OD multiplied by 1000
[3]; Assay Number 2, serum human 4467
  OD, bound IgE: 1051 OD multiplied by 1000
[3]; Assay Number 2, serum human 5207
  OD, bound IgE: 2746 OD multiplied by 1000
[3]; Assay Number 2, serum human pool
  OD, bound IgE: 2599 OD multiplied by 1000
